In one test the target is IL-4Rα (on TF-1 cells) (UniProt P24394). Briefly: cell-based or functional assay.
Test [1] has as its target IL-4Rα (receptor protein / antigen) (UniProt P24394). The experiment in a line: competition ELISA: IL-4Rα coated, biotin-IL-4 at EC80 mixed with antibody dilutions, OD450; hIgG is the control, the fitted value may be meaningless. A general note: An ELISA detects its analyte on a solid surface through an enzyme-linked reagent.

In the test with IL-4Rα (on TF-1 cells), dupilumab (antibody) returned an EC50 of neutralizing IL-4-induced TF-1 cell proliferation of 0.13 nM and an EC50 of neutralizing IL-13-induced TF-1 cell proliferation of 0.178 nM.
As a reminder, the EC50 is the concentration needed to bring the measured effect to its halfway point. Higher therefore signals a less potent agent. On to hIgG (antibody), for which the EC50 in test [1] worked out at 2.04 nM.

For the origin of these results see patent US20230279123A1.
